Consider 3 molecules from patent US10294520B2, “Nicotiana nucleic acid molecules and uses thereof” (U.S. Smokeless Tobacco Company LLC, priority 2004, dated 2019).

For data set [1], the target named is T1, tobacco nicotine demethylase (D121-AA8) (Nicotiana tabacum, UniProt Q38Q87).
T1 sequence (Q38Q87 with tags, fused parts or gaps): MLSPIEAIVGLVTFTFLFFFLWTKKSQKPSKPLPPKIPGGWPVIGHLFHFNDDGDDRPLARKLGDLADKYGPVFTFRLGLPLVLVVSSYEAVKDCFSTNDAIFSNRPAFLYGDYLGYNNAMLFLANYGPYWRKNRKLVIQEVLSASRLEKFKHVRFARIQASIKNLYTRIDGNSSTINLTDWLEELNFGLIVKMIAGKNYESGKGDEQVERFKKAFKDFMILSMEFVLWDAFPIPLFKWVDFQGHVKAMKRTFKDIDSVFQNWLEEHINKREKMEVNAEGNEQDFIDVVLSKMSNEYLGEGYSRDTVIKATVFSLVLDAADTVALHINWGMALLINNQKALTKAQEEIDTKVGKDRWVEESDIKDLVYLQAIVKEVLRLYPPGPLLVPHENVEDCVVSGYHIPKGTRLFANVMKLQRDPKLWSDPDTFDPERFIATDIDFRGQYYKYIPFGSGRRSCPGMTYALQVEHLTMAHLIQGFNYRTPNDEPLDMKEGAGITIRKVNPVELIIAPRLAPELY
Kind of data set: Nicotine demethylase activity assay with yeast microsomal preparations. The following applies: for nornicotine produced from the demethylation of nicotine (HPLC and LSC): microsomal samples from yeast cells expressing the p450.
Method: After induction by galactose for 20 hours, yeast cells were collected by centrifugation and washed twice with TES-M buffer (50 mM Tris-HCl, pH 7.5, 1 mM EDTA, 0.6 M sorbitol, 10 mM 2-mercaptoethanol). The pellet was resuspended in extraction buffer (50 mM Tris-HCl, pH 7.5, 1 mM EDTA, 0.6 M sorbitol, 2 mM 2-mercaptoethanol, 1% bovine serum album, Protease Inhibitor Cocktail (Roche) at 1 tablet/50 ml). Cells were then broken with glass beads (0.5 mm in diameter, Sigma) and the cell extract was centrifuged for 20 min at 20,000×g to remove cellular debris. The supernatant was subjected to ultracentrifugation at 100,000×g for 60 min and the resultant pellet contained the microsomal fraction. The microsomal fraction was suspended in TEG-M buffer (50 mM Tris-HCl, pH 7.5, 1 mM EDTA, 20% glycerol and 1.5 mM 2-mercaptoethanol) at protein concentration of 1 mg/mL. Microsomal preparations were stored in a liquid nitrogen freezer until use.
Nicotine demethylase activity assays with yeast microsomal preparations were performed. […] Chlorpromazine (CPZ) and oxidized cytochrome c (cyt. C), both P450 inhibitors, were purchased from Sigma. […] NADPH was omitted for control incubation. The routine enzyme assay included microsomal proteins (around 1 mglrnl), 6 mM NADPH, and 55 μM ^14C labeled nicotine. […] C, when used, was 1 mM and 100 μM, respectively. The reaction was carried at 25° C. for 1 hour and was stopped with the addition of 300 μM methanol to each 25 μl reaction mixture. After centrifugation, 20 μl of the methanol extract was separated with a reverse-phase High Performance Liquid Chromatography (HPLC) system (Agilent) using an Inertsil ODS-3 3μ (150×4.6 mm) chromatography column from Varian. The isocratic mobile phase was the mixture of methanol and 50 mM potassium phosphate buffer, pH 6.25, with ratio of 60:40 (v/v) and the flow rate was 1 ml/min. The nornicotine peak, as determined by comparison with authentic non-labeled nornicotine, was collected and subjected to 2900 tri-carb Liquid ScintlDation Counter (LSC) (Perkin Elmer) for quantification. The activity of nicotine demethylase is calculated based on the production of ^14C labeled nornicotine over 1 hour incubation.

Data set [2] concerns the target T2, nicotine demethylase activity in the transformed yeast cells (Nicotiana tabacum, UniProt Q38Q87).
T2 construct: expressed in transfected cells; host or cells: Saccharomyces cerevisiae WAT11 transformed with pYeDP60-p450 cDNA plasmid, galactose-induced culture
T2 sequence (Q38Q87 with tags, fused parts or gaps): T1 sequence (Q38Q87 with tags, fused parts or gaps)
Kind of data set: In vivo enzyme assay: feeding transformed yeast culture with 14C labeled nicotine. It is filed as cell-based. The following applies: WAT11 yeast, galactose-induced culture, 55 μM 14C nicotine, 6 hours. As for the experimental part: Single yeast colonies were used to inoculate 30 mL SGI media (5 g/L bactocasamino acids, 6.7 g/L yeast nitrogen base without amino acids, 20 g/L glucose, 40 mg/L DL-tryptophan) and grown at 30° C. for about 24 hours. An aliquot of this culture was diluted 1:50 into 1000 mL of YPGE media (10 g/L yeast extract, 20 g/L bacto peptone, 5 g/L glucose, 30 ml/L ethanol) and grown until glucose was completely consumed as indicated by the colorimetric change of a Diastix urinalysis reagent strip (Bayer, Elkhart, Ind.). Induction of cloned P450 was initiated by adding DL-galactose to a final concentration of 2%. The cultures were grown for an additional 20 hours before used for in vivo activity assay or for microsome preparation.
WAT11 yeast cells expressing pYeDP60-CYP71D20 (a p450 catalyzing the hydroxylation of 5-epi-aristolochene and 1-deoxycapsidiol in Nicotiana tabacum) were used as control for the p450 expression and enzyme activity assays.
The nicotine demethylase activity in the transformed yeast cells were assayed by feeding of yeast culture with DL-Nicotine (Pyrrolidine-2-^14C). ^14C labeled nicotine (54 mCi/mmol) was added to 75 μl of the galactose-induced culture for a final concentration of 55 μM. […] After spinning, 20 μl of the methanol extract was separated with an rp-HPLC and the nornicotine fraction was quantitated by LSC.

Positions count from the first letter of the chain named.

For `CN(C)CCCN1c2ccccc2Sc2ccc(Cl)cc21` [Chlorpromazine, reference compound], the “effect on nicotine demethylase activity of D121-AA8 microsomes” value in data set [1] (Chlorpromazine 1 mM, incubated for 1 hour) is on record as “decreased significantly”.

B1: Control (CYP71D20): a p450 catalyzing the hydroxylation of 5-epi-aristolochene and 1-deoxycapsidiol in Nicotiana tabacum, used as control (protein, UniProt Q94FM7 1-504, looked up)
5-epiaristolochene …: MQFFSLVSIFLFLSFLFLLRKWKNSNSQSKKLPPGPWKIPILGSMLHMIGGEPHHVLRDLAKKYGPLMHLQLGEISAVVVTSRDMAKEVLKTHDVVFASRPKIVAMDIICYNQSDIAFSPYGDHWRQMRKICVMELLNAKNVRSFSSIRRDEVVRLIDSIRSDSSSGELVNFTQRIIWFASSMTCRSAFGQVLKGQDIFAKKIREVIGLAEGFDVVDIFPTYKFLHVLSGMKRKLLNAHLKVDAIVEDVINEHKKNLAAGKSNGALGGEDLIDVLLRLMNDTSLQFPITNDNIKAVIVDMFAAGTETSSTTTVWAMAEMMKNPSVFTKAQAEVREAFRDKVSFDENDVEELKYLKLVIKETLRLHPPSPLLVPRECREDTDINGYTIPAKTKVMVNVWALGRDPKYWDDAESFKPERFEQCSVDFFGNNFEFLPFGGGRRICPGMSFGLANLYLPLAQLLYHFDWKLPTGIMPRDLDLTELSGITIARKGGLYLNATPYQPSRE
B1: the “nornicotine produced from the demethylation of nicotine (HPLC and LSC)” value in data set [1] was “did not show any nornicotine conversion formation”. Also, the “Demethylase activity, Microsomes + 100 μM cytochrome C” value in data set [1] (yeast microsomes with 100 μM oxidized cytochrome c, n = 3) is on record as “Not Detected”. For the same molecule, the “Demethylase activity, Microsomes + 1 mM chlorpromazine” value in data set [1] (yeast microsomes with 1 mM chlorpromazine, n = 3) is given as “Not Detected”. In data set [1] (yeast microsomes, 6 mM NADPH, 55 μM 14C labeled nicotine, 25° C., 1 hour, n = 12), the “Demethylase activity, Microsomes” value is reported as “Not Detected”. Also, the “conversion of nicotine to nornicotine in yeast culture” value in data set [2] is given as “did not convert nicotine to nornicotine”.

B2: D208-AD9: test p450 from a full-length tobacco clone, expressed in yeast (protein, listed as Nicotiana tabacum)
chain: T1 sequence (Q38Q87 with tags, fused parts or gaps) with I163M, K309E, G353C, S452P
Turning to B2, the “nornicotine produced from the demethylation of nicotine (HPLC and LSC)” value in data set [1] is recorded as “did not show any nornicotine conversion formation”.
